Entries after “also recorded” stand apart in the source; their conditions may differ.
B1: G52S: human TS mutant Gly52→Ser (protein)
chain: MPVAGSELPRRPLPPAAQERDAEPRPPHGELQYLGQIQHILRCGVRKDDRTSTGTLSVFGMQARYSLRDEFPLLTTKRVFWKGVLEELLWFIKGSTNAKELSSKGVKIWDANGSRDFLDSLGFSTREEGDLGPVYGFQWRHFGAEYRDMESDYSGQGVDQLQRVIDTIKTNPDDRRIIMCAWNPRDLPLMALPPCHALCQFYVVNSELSCQLYQRSGDMGLGVPFNIASYALLTYMIAHITGLKPGDFIHTLGDAHIYLNHIEPLKIQLQREPRPFPKLRILRKVGKIDDFKAEDFQIEGYNPHPTIKMEMAV
B2: I108F: human TS mutant Ile108→Phe (protein)
chain: MPVAGSELPRRPLPPAAQERDAEPRPPHGELQYLGQIQHILRCGVRKDDRTGTGTLSVFGMQARYSLRDEFPLLTTKRVFWKGVLEELLWFIKGSTNAKELSSKGVKFWDANGSRDFLDSLGFSTREEGDLGPVYGFQWRHFGAEYRDMESDYSGQGVDQLQRVIDTIKTNPDDRRIIMCAWNPRDLPLMALPPCHALCQFYVVNSELSCQLYQRSGDMGLGVPFNIASYALLTYMIAHITGLKPGDFIHTLGDAHIYLNHIEPLKIQLQREPRPFPKLRILRKVGKIDDFKAEDFQIEGYNPHPTIKMEMAV
B3: F225L: human TS mutant Phe225→Leu (protein)
chain: MPVAGSELPRRPLPPAAQERDAEPRPPHGELQYLGQIQHILRCGVRKDDRTGTGTLSVFGMQARYSLRDEFPLLTTKRVFWKGVLEELLWFIKGSTNAKELSSKGVKIWDANGSRDFLDSLGFSTREEGDLGPVYGFQWRHFGAEYRDMESDYSGQGVDQLQRVIDTIKTNPDDRRIIMCAWNPRDLPLMALPPCHALCQFYVVNSELSCQLYQRSGDMGLGVPLNIASYALLTYMIAHITGLKPGDFIHTLGDAHIYLNHIEPLKIQLQREPRPFPKLRILRKVGKIDDFKAEDFQIEGYNPHPTIKMEMAV
B4: F225Y: human TS mutant Phe225→Tyr (protein)
chain: MPVAGSELPRRPLPPAAQERDAEPRPPHGELQYLGQIQHILRCGVRKDDRTGTGTLSVFGMQARYSLRDEFPLLTTKRVFWKGVLEELLWFIKGSTNAKELSSKGVKIWDANGSRDFLDSLGFSTREEGDLGPVYGFQWRHFGAEYRDMESDYSGQGVDQLQRVIDTIKTNPDDRRIIMCAWNPRDLPLMALPPCHALCQFYVVNSELSCQLYQRSGDMGLGVPYNIASYALLTYMIAHITGLKPGDFIHTLGDAHIYLNHIEPLKIQLQREPRPFPKLRILRKVGKIDDFKAEDFQIEGYNPHPTIKMEMAV
B5: L221A: human TS mutant Leu221→Ala (protein)
chain: MPVAGSELPRRPLPPAAQERDAEPRPPHGELQYLGQIQHILRCGVRKDDRTGTGTLSVFGMQARYSLRDEFPLLTTKRVFWKGVLEELLWFIKGSTNAKELSSKGVKIWDANGSRDFLDSLGFSTREEGDLGPVYGFQWRHFGAEYRDMESDYSGQGVDQLQRVIDTIKTNPDDRRIIMCAWNPRDLPLMALPPCHALCQFYVVNSELSCQLYQRSGDMGAGVPFNIASYALLTYMIAHITGLKPGDFIHTLGDAHIYLNHIEPLKIQLQREPRPFPKLRILRKVGKIDDFKAEDFQIEGYNPHPTIKMEMAV
B6: L221I: human TS mutant Leu221→Ile (protein)
chain: MPVAGSELPRRPLPPAAQERDAEPRPPHGELQYLGQIQHILRCGVRKDDRTGTGTLSVFGMQARYSLRDEFPLLTTKRVFWKGVLEELLWFIKGSTNAKELSSKGVKIWDANGSRDFLDSLGFSTREEGDLGPVYGFQWRHFGAEYRDMESDYSGQGVDQLQRVIDTIKTNPDDRRIIMCAWNPRDLPLMALPPCHALCQFYVVNSELSCQLYQRSGDMGIGVPFNIASYALLTYMIAHITGLKPGDFIHTLGDAHIYLNHIEPLKIQLQREPRPFPKLRILRKVGKIDDFKAEDFQIEGYNPHPTIKMEMAV
B7: L221S: human TS mutant Leu221→Ser (protein)
chain: MPVAGSELPRRPLPPAAQERDAEPRPPHGELQYLGQIQHILRCGVRKDDRTGTGTLSVFGMQARYSLRDEFPLLTTKRVFWKGVLEELLWFIKGSTNAKELSSKGVKIWDANGSRDFLDSLGFSTREEGDLGPVYGFQWRHFGAEYRDMESDYSGQGVDQLQRVIDTIKTNPDDRRIIMCAWNPRDLPLMALPPCHALCQFYVVNSELSCQLYQRSGDMGSGVPFNIASYALLTYMIAHITGLKPGDFIHTLGDAHIYLNHIEPLKIQLQREPRPFPKLRILRKVGKIDDFKAEDFQIEGYNPHPTIKMEMAV
B8: K47E: human TS mutant Lys47→Glu (protein)
chain: MPVAGSELPRRPLPPAAQERDAEPRPPHGELQYLGQIQHILRCGVREDDRTGTGTLSVFGMQARYSLRDEFPLLTTKRVFWKGVLEELLWFIKGSTNAKELSSKGVKIWDANGSRDFLDSLGFSTREEGDLGPVYGFQWRHFGAEYRDMESDYSGQGVDQLQRVIDTIKTNPDDRRIIMCAWNPRDLPLMALPPCHALCQFYVVNSELSCQLYQRSGDMGLGVPFNIASYALLTYMIAHITGLKPGDFIHTLGDAHIYLNHIEPLKIQLQREPRPFPKLRILRKVGKIDDFKAEDFQIEGYNPHPTIKMEMAV
B9: R50C: human TS mutant Arg50→Cys (protein)
chain: MPVAGSELPRRPLPPAAQERDAEPRPPHGELQYLGQIQHILRCGVRKDDCTGTGTLSVFGMQARYSLRDEFPLLTTKRVFWKGVLEELLWFIKGSTNAKELSSKGVKIWDANGSRDFLDSLGFSTREEGDLGPVYGFQWRHFGAEYRDMESDYSGQGVDQLQRVIDTIKTNPDDRRIIMCAWNPRDLPLMALPPCHALCQFYVVNSELSCQLYQRSGDMGLGVPFNIASYALLTYMIAHITGLKPGDFIHTLGDAHIYLNHIEPLKIQLQREPRPFPKLRILRKVGKIDDFKAEDFQIEGYNPHPTIKMEMAV
B10: T51A: human TS mutant Thr51→Ala (protein)
chain: MPVAGSELPRRPLPPAAQERDAEPRPPHGELQYLGQIQHILRCGVRKDDRAGTGTLSVFGMQARYSLRDEFPLLTTKRVFWKGVLEELLWFIKGSTNAKELSSKGVKIWDANGSRDFLDSLGFSTREEGDLGPVYGFQWRHFGAEYRDMESDYSGQGVDQLQRVIDTIKTNPDDRRIIMCAWNPRDLPLMALPPCHALCQFYVVNSELSCQLYQRSGDMGLGVPFNIASYALLTYMIAHITGLKPGDFIHTLGDAHIYLNHIEPLKIQLQREPRPFPKLRILRKVGKIDDFKAEDFQIEGYNPHPTIKMEMAV
B11: D49N: human TS mutant Asp49→Asn (protein)
chain: MPVAGSELPRRPLPPAAQERDAEPRPPHGELQYLGQIQHILRCGVRKDNRTGTGTLSVFGMQARYSLRDEFPLLTTKRVFWKGVLEELLWFIKGSTNAKELSSKGVKIWDANGSRDFLDSLGFSTREEGDLGPVYGFQWRHFGAEYRDMESDYSGQGVDQLQRVIDTIKTNPDDRRIIMCAWNPRDLPLMALPPCHALCQFYVVNSELSCQLYQRSGDMGLGVPFNIASYALLTYMIAHITGLKPGDFIHTLGDAHIYLNHIEPLKIQLQREPRPFPKLRILRKVGKIDDFKAEDFQIEGYNPHPTIKMEMAV
B12: F225S: human TS mutant Phe225→Ser (protein)
chain: MPVAGSELPRRPLPPAAQERDAEPRPPHGELQYLGQIQHILRCGVRKDDRTGTGTLSVFGMQARYSLRDEFPLLTTKRVFWKGVLEELLWFIKGSTNAKELSSKGVKIWDANGSRDFLDSLGFSTREEGDLGPVYGFQWRHFGAEYRDMESDYSGQGVDQLQRVIDTIKTNPDDRRIIMCAWNPRDLPLMALPPCHALCQFYVVNSELSCQLYQRSGDMGLGVPSNIASYALLTYMIAHITGLKPGDFIHTLGDAHIYLNHIEPLKIQLQREPRPFPKLRILRKVGKIDDFKAEDFQIEGYNPHPTIKMEMAV
B13: L221F: human TS mutant Leu221→Phe (protein)
chain: MPVAGSELPRRPLPPAAQERDAEPRPPHGELQYLGQIQHILRCGVRKDDRTGTGTLSVFGMQARYSLRDEFPLLTTKRVFWKGVLEELLWFIKGSTNAKELSSKGVKIWDANGSRDFLDSLGFSTREEGDLGPVYGFQWRHFGAEYRDMESDYSGQGVDQLQRVIDTIKTNPDDRRIIMCAWNPRDLPLMALPPCHALCQFYVVNSELSCQLYQRSGDMGFGVPFNIASYALLTYMIAHITGLKPGDFIHTLGDAHIYLNHIEPLKIQLQREPRPFPKLRILRKVGKIDDFKAEDFQIEGYNPHPTIKMEMAV

System: Mouse TS-negative cells (FSthy21)
Test: Rescue of TS-negative cells by transfection of human TS cDNAs
Assay type: cell-based
Details: for TS catalytic function / complementation of growth of TS-negative cells: selective medium lacking thymidine; for FM3A TS cells surviving by transfection: selective medium without thymidine
Source text: Mouse TS-negative cells (FSthy21) were transfected with a plasmid (pcDNA3hTS*) encoding wild-type or a various mutant human TS enzyme by standard DOTAP transfection procedures. The host cells are deficient in TS, which are unable to survive without exogenous thymidine. […] In contrast, cells were unable to survive with transfection of other 11 human TS variants. For each surviving transfectant, at least 12 individual clones were isolated by soft agar or limiting dilution in 96-well plates. Those clones were expanded to cell lines by growth in normal media. Three cell clones for each transfectant were randomly selected for drug sensitivity assay.

Molecule | TS catalytic function / complementation of growth of TS-negative cells | FM3A TS cells surviving by transfection
B1 | able to complement growth; also recorded: retain TS catalytic function; also recorded: able to allow growth | yes
B2 | able to complement growth; also recorded: functional | yes
B3 | able to complement growth; also recorded: active enzymes | yes
B4 | able to complement growth; also recorded: active enzymes | yes
B5 | able to complement growth | yes
B6 | able to complement growth | yes
B7 | able to complement growth | yes
B8 | able to complement growth; also recorded: retain TS catalytic function; also recorded: able to allow growth | yes
B9 | catalytically inactive | no
B10 | not tolerated | no
B11 | not tolerated | no
B12 | severely diminished TS catalytic activity | no
B13 | inactive | no

Reference: US6416987B1, “Mutants of thymidylate synthase and uses thereof” (Sloan Kettering Institute for Cancer Research, priority 1997, dated 2002)
